Target: murine αVβ3/5 integrin on the murine melanoma cell line B16-F10 (murine) (UniProt P43406)
Assay: cell-based or functional assay
Design: IC50 of doxorubicin, cell viability, murine melanoma B16-F10, integrin targeted liposome-entrapped dox 90:1: unit not given beside the values

Chain of murine αVβ3/5 integrin on the murine melanoma cell line B16-F10 (murine) (P43406 31-1044): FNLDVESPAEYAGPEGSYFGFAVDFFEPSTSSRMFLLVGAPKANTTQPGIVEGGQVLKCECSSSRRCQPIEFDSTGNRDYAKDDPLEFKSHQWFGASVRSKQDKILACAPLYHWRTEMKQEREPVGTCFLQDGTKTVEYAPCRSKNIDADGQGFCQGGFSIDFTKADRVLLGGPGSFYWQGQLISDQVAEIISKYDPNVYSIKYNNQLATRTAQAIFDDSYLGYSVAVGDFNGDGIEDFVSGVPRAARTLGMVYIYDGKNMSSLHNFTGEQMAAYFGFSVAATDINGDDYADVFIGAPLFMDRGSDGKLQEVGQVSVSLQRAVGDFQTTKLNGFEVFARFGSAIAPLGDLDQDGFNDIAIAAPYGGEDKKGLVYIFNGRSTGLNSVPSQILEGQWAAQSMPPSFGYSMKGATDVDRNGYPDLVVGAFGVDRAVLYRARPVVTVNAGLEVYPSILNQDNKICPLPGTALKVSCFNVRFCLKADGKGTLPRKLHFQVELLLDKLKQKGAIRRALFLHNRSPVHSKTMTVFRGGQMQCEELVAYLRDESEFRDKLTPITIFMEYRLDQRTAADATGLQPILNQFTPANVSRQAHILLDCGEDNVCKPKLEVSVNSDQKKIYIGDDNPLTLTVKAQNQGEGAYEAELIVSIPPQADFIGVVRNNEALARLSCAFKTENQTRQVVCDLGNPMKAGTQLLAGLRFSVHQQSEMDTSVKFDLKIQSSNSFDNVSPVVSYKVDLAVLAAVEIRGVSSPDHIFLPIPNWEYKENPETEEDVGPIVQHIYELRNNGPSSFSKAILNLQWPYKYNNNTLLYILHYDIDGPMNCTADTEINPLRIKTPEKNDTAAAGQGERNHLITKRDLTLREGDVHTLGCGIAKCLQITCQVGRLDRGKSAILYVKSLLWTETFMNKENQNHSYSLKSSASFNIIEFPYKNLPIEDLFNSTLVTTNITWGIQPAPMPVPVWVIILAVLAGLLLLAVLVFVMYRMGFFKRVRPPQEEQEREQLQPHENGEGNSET

Substance: CNTO95 Fab′ (from pepsin cleavage, reduction and reoxidation) conjugated to PEG-DSPE on the surface of liposomes
- IC50 of doxorubicin, cell viability, murine melanoma B16-F10, integrin targeted liposome-entrapped dox 90:1: > 200
- Increase (ratio of IC50 of liposome-entrapped doxorubicin to IC50 of 90:1 integrin-targeted liposomes), murine melanoma B16-F10: 1

From US20090196913A1, “Anti-Alpha-V Immunoliposome Composition, Methods, and Uses” (priority 2007, published 2009)
